Measurements published in patent US20190030123A1.

Columns and labels:
[1] = target: HIS-tagged neonatal Fc receptor (FcRn, No. CT009-H08H from Sino Biological Inc) (UniProt P55899); test: BLI (Octet RED 96), His-FcRn on Ni-NTA biosensor, aflibercept as analyte, pH 6.0; formulation (b), stored 3 months at 5 C
[2] = target: HIS-tagged neonatal Fc receptor (FcRn, No. CT009-H08H from Sino Biological Inc) (UniProt P55899); test: BLI (Octet RED 96), His-FcRn on Ni-NTA biosensor, aflibercept as analyte, pH 6.0; sample (d) Eylea, stored 3 months at 5 C
[3] = target: HIS-tagged neonatal Fc receptor (FcRn, No. CT009-H08H from Sino Biological Inc) (UniProt P55899); test: BLI (Octet RED 96), His-FcRn on Ni-NTA biosensor, aflibercept as analyte, pH 6.0; formulation (c), stored 3 months at 40 C/75% relative humidity
[4] = target: HIS-tagged neonatal Fc receptor (FcRn, No. CT009-H08H from Sino Biological Inc) (UniProt P55899); test: BLI (Octet RED 96), His-FcRn on Ni-NTA biosensor, aflibercept as analyte, pH 6.0; formulation (b), starting material T0
[5] = target: HIS-tagged neonatal Fc receptor (FcRn, No. CT009-H08H from Sino Biological Inc) (UniProt P55899); test: BLI (Octet RED 96), His-FcRn on Ni-NTA biosensor, aflibercept as analyte, pH 6.0; formulation (a), stored 3 months at 5 C
[6] = target: HIS-tagged neonatal Fc receptor (FcRn, No. CT009-H08H from Sino Biological Inc) (UniProt P55899); test: BLI (Octet RED 96), His-FcRn on Ni-NTA biosensor, aflibercept as analyte, pH 6.0; formulation (a), stored 3 months at 40 C/75% relative humidity
[7] = target: HIS-tagged neonatal Fc receptor (FcRn, No. CT009-H08H from Sino Biological Inc) (UniProt P55899); test: BLI (Octet RED 96), His-FcRn on Ni-NTA biosensor, aflibercept as analyte, pH 6.0; sample (d) Eylea, stored 3 months at 40 C/75% relative humidity
[8] = target: HIS-tagged neonatal Fc receptor (FcRn, No. CT009-H08H from Sino Biological Inc) (UniProt P55899); test: BLI (Octet RED 96), His-FcRn on Ni-NTA biosensor, aflibercept as analyte, pH 6.0; formulation (b), stored 3 months at 40 C/75% relative humidity
[9] = target: HIS-tagged neonatal Fc receptor (FcRn, No. CT009-H08H from Sino Biological Inc) (UniProt P55899); test: BLI (Octet RED 96), His-FcRn on Ni-NTA biosensor, aflibercept as analyte, pH 6.0; formulation (c), stored 3 months at 5 C
[10] = target: HIS-tagged neonatal Fc receptor (FcRn, No. CT009-H08H from Sino Biological Inc) (UniProt P55899); test: BLI (Octet RED 96), His-FcRn on Ni-NTA biosensor, aflibercept as analyte, pH 6.0; sample (d) Eylea, starting material T0
[11] = target: HIS-tagged neonatal Fc receptor (FcRn, No. CT009-H08H from Sino Biological Inc) (UniProt P55899); test: BLI (Octet RED 96), His-FcRn on Ni-NTA biosensor, aflibercept as analyte, pH 6.0; formulation (a), starting material T0
[12] = target: HIS-tagged neonatal Fc receptor (FcRn, No. CT009-H08H from Sino Biological Inc) (UniProt P55899); test: BLI (Octet RED 96), His-FcRn on Ni-NTA biosensor, aflibercept as analyte, pH 6.0; formulation (c), starting material T0

HIS-tagged neonatal Fc receptor (FcRn, No. CT009-H08H from Sino Biological Inc), sequence (P55899 24-297 limits assumed, chain 1 of 2): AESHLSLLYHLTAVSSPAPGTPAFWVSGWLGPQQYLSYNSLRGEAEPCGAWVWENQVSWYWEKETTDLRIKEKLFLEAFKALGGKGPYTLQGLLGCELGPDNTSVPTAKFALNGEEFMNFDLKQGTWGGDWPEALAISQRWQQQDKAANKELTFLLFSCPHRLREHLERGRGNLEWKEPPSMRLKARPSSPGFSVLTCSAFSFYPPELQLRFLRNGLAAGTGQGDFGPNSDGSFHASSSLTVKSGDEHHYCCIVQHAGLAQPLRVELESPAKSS
HIS-tagged neonatal Fc receptor (FcRn, No. CT009-H08H from Sino Biological Inc), sequence (chain, as listed by the source H08H H08H limits assumed, chain 2 of 2): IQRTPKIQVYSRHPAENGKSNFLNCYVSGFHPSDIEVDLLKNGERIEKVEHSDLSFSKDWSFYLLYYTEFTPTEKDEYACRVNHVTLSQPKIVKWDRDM

Work on “aflibercept (from UniProt P17948 129-230; P35968 225-327) (Fc fusion)” yielded a Kd [1] of 92.3 pM, a koff [1] of 5.71e-05 s⁻¹ and a kon [1] of 619000 M⁻¹ s⁻¹. For the same substance, the Kd [2] was 96.8 pM, the koff [2] was 6.11e-05 s⁻¹ and the kon [2] was 631000 M⁻¹ s⁻¹. The Kd [3] was 59.1 pM, the koff [3] was 2.71e-05 s⁻¹ and the kon [3] was 459000 M⁻¹ s⁻¹. The koff [4] was 6.47e-05 s⁻¹, the kon [4] was 613000 M⁻¹ s⁻¹ and the Kd [5] was 98 pM. The koff [5] was 5.84e-05 s⁻¹, the kon [5] was 596000 M⁻¹ s⁻¹ and the Kd [6] was 90.5 pM. The koff [6] was 4.11e-05 s⁻¹, the kon [6] was 454000 M⁻¹ s⁻¹ and the Kd [7] was 60.9 pM. It also gave a koff [7] of 3e-05 s⁻¹, a kon [7] of 493000 M⁻¹ s⁻¹ and a Kd [8] of 59.1 pM. The koff [8] was 2.86e-05 s⁻¹, the kon [8] was 483000 M⁻¹ s⁻¹ and the Kd [9] was 103 pM. It also gave a koff [9] of 6.28e-05 s⁻¹, a kon [9] of 610000 M⁻¹ s⁻¹ and a Kd [10] of 99.3 pM. The koff [10] was 5.56e-05 s⁻¹, the kon [10] was 560000 M⁻¹ s⁻¹ and the Kd [11] was 118 pM. The koff [11] was 6.56e-05 s⁻¹, the kon [11] was 556000 M⁻¹ s⁻¹ and the Kd [12] was 107 pM. It also gave a koff [12] of 6.44e-05 s⁻¹ and a kon [12] of 605000 M⁻¹ s⁻¹.
